Laboratory results taken from US20190031762A1, “POSTERIOR OCULAR FIBROSIS INHIBITION BY ANTAGONIZING PLACENTAL GROWTH FACTOR” (THROMBOGENICS NV, priority 2016, published 2019).
“Also recorded” adds a separate entry of the source.

Columns and labels:
[1] = system: mouse CNV model; test: Posterior ocular collagen deposition (Col1a staining) in laser-induced CNV mouse model; assay type: in vivo; settings: for reduction in collagen deposition (Col1a): IVT D0, 4, 10 and 20
Procedure: (§1) Mice (C57BL/6J, male, 8-10 weeks old) were anesthetized by intraperitoneal injection (135 μL) of a mixture of ketamine hydrochloride (Anesketin; […]) and medetomidine (Domitor; 1 mg/mL) and their pupils dilated with one eye drop (50 μL) Tropicamide (Tropicol™; 5 mg/mL; Thea, Research Papers Clermont-Ferrand, France). Three laser burns were placed in one eye with a green laser at the 9, 12, 3 o'clock positions around the optic disk using a slit lamp delivery system with a hand-held cover slide as a contact lens moisturized with Genteal Gel™ (Novartis, Vilvoorde, Belgium). Each spot was placed with a spot size of 100 μm, laser duration of a 50 milliseconds and a power of 320 mW. […] Finally, 300 μL atipamezole (Antisedan; 5 mg/mL) was injected intraperitoneally to reverse the effect of medetomidine and to reduce sedation time.
(§2) At different time points after lasering, the compounds were administered intravitreally (IVT). The animal was anesthetized with a mixture of ketamine hydrochloride/medetomidine and the eye was treated with a drop of 0.4% oxybuprocaine (Unicaine; Thea Pharma). Intravitreal injections (1 μL) to one eye according to Tables 1 to 3 were performed by using an analytic science syringe (SGE Analytic Science) and glass capillaries with a diameter of 50-70 μm at the end, controlled by the UMP3I Microsyringe Injector and Micro4 Controller (all from World Precision Instruments Inc., Hertfordshire, UK). Finally, atipamezole (Antisedan) was injected intraperitoneally to reverse the effect of medetomidine and to reduce sedation time.
(§3) To analyze the in vivo efficacy of the different compounds, the retina was removed from the dissected posterior segments. These posterior eye cups, which included retinal pigment epithelium (RPE), the choroid and the sclera were stored in phosphate buffered saline (PBS).
To stain for the presence of collagen type 1 (Colla) protein in the laser spots at day 30 after laser, a rabbit anti-collagen antibody (Abcam, 1/270) was used overnight, diluted in Tris-buffered saline (TBS)-Triton 0.5% (v/v) at 4° C. The following day, the tissues were incubated for 2 hours with goat anti rabbit IgG Alexa Fluor 555 (Life Technologies; A-21428), diluted 1/100 in TBS-Triton 0.3% (v/v) at 4° C. The flat mounts of the posterior eye cups were mounted with Prolong Gold with 4′,6-diamidino-2-phenylindole (DAPI, Molecular Probes). Images were obtained using a microscope with a digital camera (Axiocam MrC5; Carl Zeiss, Oberkochen, Germany) at a magnification factor of 20. Morphometric analyses were performed using commercial software (Axiovision; Zeiss, Oberkochen, Germany). The density of collagen deposition was determined by calculating the Colla-positive area as a proportion of the total lesion.
(§4) The mouse CNV model as described in Example 2.1 was used. At different time points after lasering, compounds were administered intraperitoneally (IP), or intravitreally (IVT), as indicated in Table 3.

[2] = system: mouse CNV model; test: Leukocyte infiltration (CD45 staining) in laser-induced CNV mouse model; assay type: in vivo
Procedure: as §1, §2, §3
On day 5 after lasering, a rat anti-mouse CD45 and F4/80 antibody ( 1/100; Pharmingen, Erembodegem, Belgium) was used overnight to stain all leukocytes and macrophages, respectively, diluted in Tris-buffered saline (TBS)-Triton 0.3% (v/v). The following day, the tissues were incubated for 2 hours with rabbit anti-rat biotin labeled antibody ( 1/300; DakoCytomation A/S, Copenhagen, Denmark), diluted in TBS-Triton 0.3%. Antibody binding was visualized by fluorescent staining using streptavidin-Alexa-568 ( 1/200; Molecular Probes, Life Technologies, Eugene, Oreg., USA) in TBS-Triton 0.3% for 2 hours. The flatmounts of the posterior eye cups were mounted with Prolong Gold with 4′,6-diamidino-2-phenylindole (DAPI, Molecular Probes). Images were obtained using a microscope with a digital camera
(Axiocam MrC5; Carl Zeiss, Oberkochen, Germany) at a magnification of 20×. Morphometric analyses were performed using commercial software (Axiovision; Zeiss, Oberkochen, Germany). The density of inflammation was determined by calculating the CD45-positive area as a proportion of the total lesion.

[3] = system: retinal pigment epithelium (RPE) cell; settings: Julien et al., Br J Ophthalmol 2014; cited from earlier work
[4] = system: mouse CNV model; test: Macrophage infiltration (F4/80 staining) in laser-induced CNV mouse model; assay type: in vivo; settings: day 5 after lasering; IVT D0; compared to IgG; dose not stated
Procedure: as §1
At different time points after lasering, the compounds were administered intravitreally (IVT). The animal was anesthetized with a mixture of ketamine hydrochloride/medetomidine and the eye was treated with a drop of 0.4% oxybuprocaine (Unicaine; Thea Pharma). […]

[5] = system: age-related macular edema (AMD); settings: in vivo; cited from earlier work
[6] = system: retinal ganglion cells (RGCs); settings: mouse, in vivo, ip, 25 mg/kg
Procedure: To investigate the safety of anti-PlGF and anti-VEGF-R2 on the retinal ganglion cell layer, naive mice (C75Bl/6 or Swiss mice) were injected with 25 mg/kg of anti-PlGF, anti-VEGF-R2 or control IgG 3 times a week for 6 weeks. Afterwards the mice were sacrificed and immunohistochemistry for the neuronal marker NeuN was performed. The samples were incubated overnight with the primary mouse anti-NeuN (Chemicon MAB377) 1/500. As secondary antibody, rabbit anti-mouse biotin-labeled 1/400 (Dako E0646) was added for 45 minutes. Subsequently, the sections were incubated with Streptavidin-HRP 1/100 in TNB for 30 minutes, followed by amplification with Biotin (kit NEL700) 1/50 in amplification buffer for 8 minutes and again incubated with Streptavidin-HRP 1/100 for 30 minutes (all from Perkin Elmer, Life Sciences). Hereafter, a 3,3-diaminobenzidine (DAB) staining (Fluka-Sigma Aldrich) was performed by adding peroxide to the tissue and a counterstaining was done with Harris hematoxylin (Merck). Viable RGCs were quantified 2 times on the same serial section on a defined length of the retina (250 μm) on either side of the optic nerve.

[7] = system: mouse CNV model; test: Pericyte coverage (αSMA staining) in mouse CNV model; assay type: in vivo; settings: day 14 after lasering, 25 mg/kg IP 3 times per week
Procedure: as §1, §4
To study pericyte coverage as a marker of vessel maturation, smooth muscle cell actin (SMA) was examined on serial […] paraffin sections. […] The amount of SMA cells present in the lesion was determined by the use of commercial software (Axiovision; Zeiss, Oberkochen, Germany).

[8] = system: retinal ganglion cells (RGCs); test: Neuroretinal safety in naive mice: apoptotic cells in ganglion cell layer (TUNEL staining); assay type: in vivo, mouse; settings: 25 mg/kg IP 3 times per week
Procedure: A TUNEL (terminal deoxynucleotidyl transferase-mediated biotinylated UTP nick end labeling) staining was performed to investigate apoptotic signal. Serial sections were deparaffinized, washed and treated with proteinase K ( 1/500; Qiagen, Venlo, the Netherlands) for 15 minutes. Next, sections are incubated with the TUNEL reaction mixture (In Situ Cell Death Detection Kit, POD; Roche, Mannheim, Germany) at 37° C. for 1 hour. Afterwards, the slides were mounted with Prolong Gold containing DAPI (Molecular Probes). Each section was scanned systematically from the temporal to the nasal or a serrata for fluorescent cells indicative of apoptosis. […]

[9] = day 30, equimolar comparison FIG. 2B: 5D11D4 3.1 μg, DC101 3.1 μg, aflibercept 2.4 μg, TAAC 4 μg, vs IgG
[10] = day 5, equimolar comparison FIG. 1B: 5D11D4 3.1 μg, DC101 3.1 μg, aflibercept 2.4 μg, TAAC 4 μg, vs IgG
[11] = day 30, repeated IVT, 3.1 μg (FIG. 2A)
[12] = day 5, equimolar comparison FIG. 1B (5D11D4 3.1 μg, aflibercept 2.4 μg)
[13] = repeat experiment (FIG. 4), day 30, 3.1 μg/eye, compared to PBS

CC1(C)O[C@@H]2C[C@H]3[C@@H]4CCC5=CC(=O)C=C[C@]5(C)[C@@]4(F)[C@@H](O)C[C@]3(C)[C@]2(C(=O)CO)O1 [TAAC, triamcinolone acetonide, reference compound]
effect on collagen deposition, in words [1, 9]: no effect | reduction in collagen deposition (Col1a) ([1]; repeat experiment (FIG. 4), day 30, 40 μg/eye, compared to PBS): 49% | effect on leukocyte infiltration (CD45), in words [2, 10]: no effect

aflibercept: multispecific inhibitor capturing VEGF-A, VEGF-B and PlGF; tradename Eylea®, Bayer
effect on RPE cell death, in words [3]: increase retinal pigment epithelium (RPE) cell death | decrease of infiltration of macrophages (F4/80) [4]: 52% | effect on collagen deposition, in words [1, 9]: no effect; also recorded: did not show any anti-fibrotic effects | effect on collagen deposition, in words ([1]; day 30, repeated IVT, 2.4 μg (FIG. 2A)): no effect on collagen deposition | effect on collagen deposition, in words [1, 11]: did not show any anti-fibrotic effects | effect on collagen deposition, in words ([1]; day 30, repeated IVT, 20 μg (FIG. 2A)): no effect on collagen deposition | effect on posterior ocular fibrosis, summary statement ([1]; laser-induced CNV, dose not stated): did not reduce posterior ocular fibrosis | effect on collagen deposition / fibrosis, in words ([1]; repeat experiment (FIG. 4), day 30, equimolar amount 2.4 μg/eye, compared to PBS): did not reduce fibrosis | effect on inflammation in laser-induced CNV, summary statement ([2]; comparable reduction at comparable dose, dose not stated): able to reduce inflammation | reduction in leukocyte infiltration (CD45) [2, 12]: 50% | effect on leukocyte infiltration (CD45), in words ([2]; day 5 after lasering, IVT D0, 2.4 μg, vs IgG (FIG. 1A)): comparable effects | effect on leukocyte infiltration (CD45), in words ([2]; day 5 after lasering, IVT D0, 20 μg, vs IgG (FIG. 1A)): comparable effects | reduction in leukocyte infiltration (CD45) ([2]; day 5 after lasering, single IVT D0, 2.4 μg, compared to IgG): approximately 50% | reduction in leukocyte infiltration (CD45) ([2]; day 5 after lasering, single IVT D0, 20 μg, compared to IgG): approximately 50%

bevacizumab: antibody binding all VEGF-A isoforms
patients developing a posterior fibrotic scar [5]: 24.7%

ranibizumab: antibody fragment binding all VEGF-A isoforms
patients developing a posterior fibrotic scar [5]: 24.7%

B1: 5D11D4: murine anti-murine PlGF-neutralizing antibody; heavy chain SEQ ID NO:12, light chain SEQ ID NO:13 (antibody, listed as Mus musculus, V domains shown)
VH: QVQLQQPGAELVRPGASVKLSCKASGYTFTNYWINWVKQRPGQGLEWIGNIYPSDSFTNYNQKFKDKATLTVDKSSSTAYMHLSSPTSDDSAVYYCTRDYRYDAVYALDYWGQGTSVTVSS
VL: QIVLTQSPAIMSASPGEKVTITCSASSSVSFIHWFQQKPGTSPKLWIYGTSNLASGVPARFSGSGSGTSSSLTISRMEAEDAATYYCQQRSRYPYTFGGGTKLEIK
modifications: VH 5D11D4; VL 5D11D4
decrease of infiltration of macrophages (F4/80) [4]: 48% | effect on collagen deposition, in words [1, 9]: delays the process of wound healing; also recorded: decreased collagen deposition | effect on collagen deposition, in words ([1]; day 30, repeated IVT, 1.5 μg (FIG. 2A)): decreased collagen deposition | effect on collagen deposition, in words [1, 11]: decreased collagen deposition | reduction in collagen deposition (Col1a) ([1]; day 30 after lasering, 1.5 μg, compared to IgG): 43% | reduction in collagen deposition (Col1a) ([1]; day 30 after lasering, 3.1 μg, compared to IgG): 44% | effect on collagen deposition / fibrosis, in words [1, 13]: significantly decreased collagen deposition | reduction in collagen deposition (Col1a) [1, 13]: 44% | reduction in leukocyte infiltration (CD45) [2, 12]: 50% | effect on leukocyte infiltration (CD45), in words [2, 10]: decreased leukocyte infiltration | effect on leukocyte infiltration (CD45), in words ([2]; day 5 after lasering, IVT D0, 1.5 μg, vs IgG (FIG. 1A)): decreased leukocyte infiltration | effect on leukocyte infiltration (CD45), in words ([2]; day 5 after lasering, IVT D0, 3.1 μg, vs IgG (FIG. 1A)): decreased leukocyte infiltration | reduction in leukocyte infiltration (CD45) ([2]; day 5 after lasering, single IVT D0, 1.5 μg, compared to IgG): 36% | reduction in leukocyte infiltration (CD45) ([2]; day 5 after lasering, single IVT D0, 3.1 μg, compared to IgG): 46% | RGCs/retinal area versus other treatment groups, in words [6]: not significantly different | effect on RGC density, in words [6]: did not induce any alteration | ganglion cell density (RGC/retinal area) [6]: 4600 RGC/retinal area | αSMA-positive area versus control IgG, in words [7]: increased the αSMA (smooth muscle cell actin) positive area | increase in pericyte-covered vessels ([7]; vs control IgG): 35% | apoptotic cells per retinal area versus control IgG, in words ([8]; C57Bl/6 mice, after 6 weeks): comparable | apoptotic cells per retinal area in the ganglion cell layer (TUNEL) ([8]; C57Bl/6 mice, after 6 weeks, control IgG 16±2): 20±4 apoptotic cells per retinal area | effect on apoptotic cells / apoptotic rate, in words ([8]; Swiss mice (Rd gene)): did not induce any alteration
